These results are taken from the DeepSol protein solubility set.

A short description of this data set: soluble on expression in E. coli; label from the status in PepcDB or PDB records.
Consider “ASLDSEVELLPHTSFAESLGPWSLYGTSEPVFADGRMCVDLPGGQGNPWDAGLVYNGVPVGEGESYVLSFTASATPDMPVRVLVGEGGGAYRTAFEQGSAPLTGEPATREYAFTSNLTFPPDGDAPGQVAFHLGKAGAYEFCISQVSLTTSAT”, for which the “soluble on expression in E. coli” value is reported as “soluble”.
For the sequence “ASMTGGQQMGRDPGMTVTSQVKPEDEMDNWGRLILDGVSYSDMVGARDRPKEITWFDYWMSLANEYEQEAERKVALGHDLSAGELLMSAALCAQYAQFLWFDERRQKGQARKVELYQKAAPLLSPPAERHELVVDGIPMPVYVRIPEGPGPHPAVIMLGGLESTKEESFQMENLVLDRGMATATFDGPGQGEMFEYKRIAGDYEKYTSAVVDLLTKLEAIRNDAIGVLGRSLGGNYALKSAACEPRLAACISWGGFSDLDYWDLETPLTKESWKYVSKVDTLEEARLHVHAALETRDVLSQIACPTYILHGVHDEVPLSFVDTVLELVPAEHLNLVVEKDGDHCCHNLGIRPRLEMADWLYDVLVAGKKVAPTMKGWPLEHHHHHH”, the “soluble on expression in E. coli” value is “soluble”.
In the case of “ATFTSLANQAASREDYEFHRTVLLASGGLLLSGDPLPEITPFASKTLAKLMLRQRRSQESAKFTALSLSHAFLKLTDKNDLHCLFNYANHNATEFTLTADQPVDWYDYWTGEKLNQDPCQLLLVSVDRGLNAKAIVTA”, the “soluble on expression in E. coli” value is on record as “not soluble”.
Consider “ATQFTASILSLYNSEQMLQKTDPMSVISSAMVAATLDLPIDKNLGYAWIVPYGGKAQFQLGYKGYIQLALRTGQYKSINCIPIHEGELQKWNPLTEEIEIDFEKRESDAVIGYAAYFELINGFRKTVYWTKAQVEKHKKKFSKSDFGWKNDWDAMALKTVLKAVLSKWGILSVEMQKAVIEEDETRERIDITNEADSSEIIDSE”, for which the “soluble on expression in E. coli” value is recorded as “not soluble”.
In the case of “ATSDSNMLLNYVPVYVMLPLGVVNVDNVFEDPDGLKEQLLQLRAAGVDGVMVDVWWGIIELKGPKQYDWRAYRSLLQLVQECGLTLQAIMSFHQCGGNVGDIVNIPIPQWVLDIGESNHDIFYTNRSGTRNKEYLTVGVDNEPIFHGRTAIEIYSDYMKSFRENMSDFLESGLIIDIEVGLGPAGELRYPSYPQSQGWEFPGIGEFQCYDKYLKADFKAAVARAGHPEWELPDDAGKYNDVPESTGFFKSNGTYVTEKGKFFLTWYSNKLLNHGDQILDEANKAFLGCKVKLAIKVSGIHWWYKVENHAAELTAGYYNLNDRDGYRPIARMLSRHHAILNFSCLEMRDSEQPSDAKSGPQELVQQVLSGGWREDIRVAGENALPRYDATAYNQIILNARPQGVNNNGPPKLSMFGVTYLRLSDDLLQKSNFNIFKKFVLKMHADQDYCANPQKYNHAITPLKPSAPKIPIEVLLEATKPTLPFPWLPETDMKVDG” it was “soluble”; in that of “AVGNATQPLLVVEDSDEDFSTFQRLLQREGVVNPIYRCITGDQALDFLYQTGSYCNPDIAPRPAVILLDLNLPGTDGREVLQEIKQDEVLKKIPVVIMTTSSNPKDIEICYSYSISSYIVKPLEIDRLTETVQTFIKYWLDIVVLPEMG”, “soluble”; in that of “AVKVGINGFGRIGRNVFRAALKNPDIEVVAVNDLTDANTLAHLLKYDSVHGRLDAEVSVNGNNLVVNGKEIIVKAERDPENLAWGEIGVDIVVESTGRFTKREDAAKHLEAGAKKVIISAPAKNEDITIVMGVNQDKYDPKAHHVISNASCTTNCLAPFAKVLHEQFGIVRGMMTTVHSYTNDQRILDLPHKDLRRARAAAESIIPTTTGAAKAVALVLPELKGKLNGMAMRVPTPNVSVVDLVAELEKEVTVEEVNAALKAAAEGELKGILAYSEEPLVSRDYNGSTVSSTIDALSTMVIDGKMVKVVSWYDNETGYSHRVVDLAAYIASKGL”, “soluble”.
As to “AVNGKGMNPDYKAYLMAPLKKIPEVTNWETFENDLRWAKQNGFYAITVDFWWGDMEKNGDQQFDFSYAQRFAQSVKNAGMKMIPIISTHQCGGNVGDDCNVPIPSWVWNQKSDDSLYFKSETGTVNKETLNPLASDVIRKEYGELYTAFAAAMKPYKDVIAKIFLSGGPAGELRYPSYTTSDGTGYPSRGKFQAYTEFAKSKFRLWVLNKYGSLNEVNKAWGTKLISELAILPPSDGEQFLMNGYLSMYGKDYLEWYQGILENHTKLIGELAHNAFDTTFQVPIGAKIAGVHWQYNNPTIPHGAEKPAGYNDYSHLLDAFKSAKLDVTFTCLEMTDKGSYPEYSMPKTLVQNIATLANEKGIVLNGENALSIGNEEEYKRVAEMAFNYNFAGFTLLRYQDVMYNNSLMGKFKDLLGVTPVMQTIVVKNVPTTIGDTVYITGNRAELGSWDTKQYPIQLYYDSHSNDWRGNVVLPAERNIEFKAFIKSKDGTVKSWQTIQQSWNPVPLKTTSHTSSW”, the “soluble on expression in E. coli” value was “soluble”.
For “AVTFAVMVSDAPSLDESKLKTPYSSTIYDKNGKEIAEVGAEKRTYVSIDEIPDVVKEAFIATEDARFYEHHGIDPVRIGGALVANFKDGFGAEGGSTITQQVVKNSLLSHQKTLKRKVQEVWLSIQLERNYSKDEILEMYLNRIYFSPRAYGIGKAAEEFFGVTDLSKLTVEQAATLAGMPQSPTAYNPVKNPDKAEKRRNIVLSLMKKQGFISDSQYNKAKKVAVKDEGVVSQKEYEKASTNKYSAFVEEVMKEIDEKSDVDPSADGLKIYTTLDTKAQDKLDELMDGDTVGFTEGMQGGVTLLDTKNGEVRAIGAGRNQPVGGFNYATQTKAQPGSTIKPILDYGPVIENKKWSTYEQIDDSAYTYSNGKPIRDWDRKYLGPISMRYALAQSRNIPALKAFQAVGKDTAVDFANGLGLGLTKDNVTEAYSIGGFGGNDGVSPLTMAGAYSAFGNNGTYNEPHFVKSIEFNDGTKLDLTPKSKSAMSDYTAFMITDMLKTAVKTGTGQLAQVPGVEVAGKTGTTNFDDNEVKRYNIASGGARDSWFVGYTPQYTAAVWTGMGENEAGKKSLSAEEQKVAKRIFAQLIADVDDGSGSFEKPDSVVEATVEKGSNPAKLAGPNTPSDKKLTEYFVKGTAPSTVSKTYEKEEKEETAKLSGLNVKYDKDNQSLTLSWNYDGDATFAVKQSVDGGSYSEIQNSSAKEAVISGVQPGSVYKFEVTAVSDDGKSTASTSYEVPKAEDDEDKKDQQQTDDEKQDDEKTQDDTQTDDSQKDDGQTDQDQTDDSTNDQDKKQDNTNTNPSDNNNQDQSNDNDNDNSNNQDTSDGDSNSGKNDSTGSDTNKNKTDTSNKTQTNSSSIEKT” the value was “not soluble”; for “CIPLWGTVSIQGNRSEMEDAFAVSPHFLKLPIKMLMGDHEGMSPSLTHLTGHFFGVYDGHGGHKVADYCRDRLHFALAEEIERIKDELCKRNTGEGRQVQWDKVFTSCFLTVDGEIEGKIGRAVVGSSDKVLEAVASETVGSTAVVALVCSSHIVVSNCGDSRAVLFRGKEAMPLSVDHKPDREDEYARIENAGGKVIQWQGARVFGVLAMSRSIGDRYLKPYVIPEPEVTFMPRSREDECLILASDGLWDVMNNQEVCEIARRRILMWHKKNGAPPLAERGKGIDPACQAAADYLSMLALQKGSKDNISIIVIDLKAQRK”, “soluble”; for “CLEDILSATKMVINLCLPQFRPRIHCNKISADGYEVENLISEDLTKRSHGFRTEYFIKPPVYVTVSFPFNVEICRINIDLTAGGGQNVTGLEMYTSASSSRVSWNTPQCRTLGPAEPSVPDKEAFTLVGKVLLKNQSQVVFSHRGFKARPPFGAMEATLPSPAVVAQELWNKGALSLSHVAHLRICITHVTGGGIPCIKRLEVWGQPAKTCSQEVIDSILLVTSENLPQDVALQAPALPMESDCDPGDQPESQQAPSSLQKLAEIIQDVPEEFLDPITLEIMPCPMLLPSGKVIDQSTLEKCNRSEATWGRVPSDPFTGVAFTPHSQPLPHPSLKARIDHFLLQHSIPGCHLLGRAQTALAVIPSSIVLPSQKRKIEQAEHVPDSNFGVNASCFSATSPLVLPTTSEHTAKKMKATNEPSLTHMDCSTGPLSHEQKLSQSLEIALASTLGSMPSFTARLTRGQLQHLGTRGSNTSWRPGTGSEQPGSILGPECASCKRVFSPYFKKEPVYQLPCGHLLCRPCLGEKQRSLPMTCTACQRPVASQDVLRVHF”, “soluble”.
On to “CPQEDSDIAFLIDGSGSIIPHDFRRMKEFVSTVMEQLKKSKTLFSLMQYSEEFRIHFTFKEFQNNPNPRSLVKPITQLLGRTHTATGIRKVVRELFNITNGARKNAFKILVVITDGEKFGDPLGYEDVIPEADREGVIRYVIGVGDAFRSEKSRQELNTIASKPPRDHVFQVNNFEALKTIQNQLREKIFAIGSPGI”, for which the “soluble on expression in E. coli” value is “soluble”.
For “CSCSPVHPQQAFCNADIVIRAKAVNKKEVDSGNDIYGNPIKRIQYEIKQIKMFKGPDQDIEFIYTAPAAAVCGVSLDIGGKKEYLIAGKAEGNGNMHITLCDFIVPWDTLSATQKKSLNHRYQMGCECKITRCPMIPCYISSPDECLWMDWVTEKNINGHQAKFFACIKRSDGSCAWYRGAAPP” the value was “soluble”; for “CSKNRKAKAKPVTRGTGAGSRPRGQNKERPPPVPNPDYEPIRKGQRDLYSGLNQRAV”, “soluble”; for “CSSPKPDAEEQGVPVSPTASDPALLAEIRQSLDATKGLTSVHVAVRTTGKVDSLLGITSADVDVRANPLAAKGVCTYNDEQGVPFRVQGDNISVKLFDDWSNLGSISELSTSRVLDPAAGVTQLLSGVTNLQAQGTEVIDGISTTKITGTIPASSVKMLDPGAKSARPATVWIAQDGSHHLVRASIDLGSGSIQLTQSKWNEPVNVD”, “soluble”.
Consider “DARFSLGGYAGGMYDVHVKNSWYVQPQLLFTYEEFRSKTRLGTDSFFSKFNLELPILASYNVALNNKWNLHINAGPYLSYAMFGRDKSIDYAYGNGMHSSLGWWHQDFPDHFTYGGRAGVSLESEHFIYTIDGKCSLRKRPFGRSVSLSAGVGYKF”, for which the “soluble on expression in E. coli” value is on record as “not soluble”.
Consider “DCEKEGEVQWFALPVVLVSGCKKERAIEMKLPTEALFACLQNYPHLRALTQETQWLPYLVHSSDLSAVAPDEWWRAKQNTEAAAQHLRRFAPRPLLLPEGQSVHVVYALGFGSGKVQTALGQNLLQAGLPLMQVWQENLASEGVTLFANPLSPDSPVRALSDGSHTRQRMAMDVFAANAIRAVRMQSPR”, for which the “soluble on expression in E. coli” value was “not soluble”.
Consider DCYCRIPACIAGEKKYGTCIYQGKLWAFCC, for which the “soluble on expression in E. coli” value is listed as “soluble”.
In the case of “DDSAVTLFIPGYAGNRFSFGGMLQRFTAGGIANKSLVVMIDRHNHPHVTGELDAYRPMVQLIFATPRVAVRQQAAGVLAVVQYLIAHEHVQTINLVAHSMGGVVLFQYLTTAAKLVNLPEVRKVVTIGAPFNDSEVGQNTYPIENHPLTATGPTKTTPVYNYFLRTLQRLPNTISYLNIAGNIGDAAQSDGAVALNSALSLRFLLRPTRDQYQEFVVHGKNARHSRLHENYEVDRQIVQFFISRSHKKGCW” it was “not soluble”; in that of “DEGYWDCSVCTFRNSAEAFKCMMCDVRKGTSTRKPRPVSQ”, “soluble”.
In the case of “DEILIDPHAVLGPVDPQLMNYPAPSILKVVEKKEPKDIDDKTLIMADIAEKAINQVRETVFNLLKDKMDEEKAREVAKILTEGRWTHDYPLTVEELRQLGLKVSTDVPEEVYELMELYPQPMMQRHPGVEFVPSPPKGEKPSFK”, the “soluble on expression in E. coli” value is given as “not soluble”.
For “DERKRQESLIQSMFMPREILRASLSDVDLNDDGRIKAIRFAERFVAEYEPGKKMKGLYLHGSFGVGKTYLLAAIANELAKRNVSSLIVYVPELFRELKHSLQDQTMNEKLDYIKKVPVLMLDDLGAEAMSSWVRDDVFGPILQYRMFENLPTFFTSNFDMQQLAHHLTYSQRGEEEKVKAARIMERIRYLAYPIEITGPNRR” the value was “soluble”; for “DFEDVHIAEARVDVPSTWRDQIVNTNAVATETHPLKCAEVETQTGSKDNQGTQTDDAGGGRPPSPSKVQASGVADFMAKVEGMVAGELVKATEEHEVLEPFTRAADDEQEPATCIHYLSPFQQDAA”, “not soluble”.
